Source: patent US20260242441A1

Target: CD45 (PTPRC) phosphatase, endogenous, of Jurkat cells and human PBMC (human) (UniProt P08575)
Assay: cell-based or functional assay

For “soluble recombinant human BTN2A2-Fc fusion protein (baculovirus / insect cell derived)”, which expansion of CD4+CD25+CD127low/-Foxp3+ Treg cells in human PBMC MLR, with or without CD45 inhibitor is on record?
The expansion of CD4+CD25+CD127low/-Foxp3+ Treg cells in human PBMC MLR, with or without CD45 inhibitor was 2 fold.
